Data from patent publication US20250145690A1 (US Dept. of Health and Human Services, published 2025).

B1: COV77-42 (antibody, V domains shown)
VH: QVYLQESGPGLVKPSQTLSLTCAVSGGSIRSDGYYWTWIRQHPGKGLEWIGNTYYNGNTYYNPSLRSRVTTSLDTSKNQFSLKVVSMTGADTAVYYCARGRLGFCAGGACFLDTLDYWGQGTLVTVSS
VL: EIVMTQSPVTLSVSPGERVTLSCRADQSVNNNLAWYQQKPGQAPRLLIHGASTRATGIPARFSGSGSGTEFTLTISSLQSEDFAIYYCQQYYNWLLTFGGGTKLEIK
B2: COV44-25 (antibody, V domains shown)
VH: QVQLVDSGGGAVQPGTSLRLSCAASGFTFNTYAFHWVRQAPGKGLEWVAVISDDGNNKYYADSVKGRFTISRDDSKNTLSLQMDSLRVEDAAVYFCARGSYNSNWSLGEYFDYWGQGSLVTVSS
VL: DIVMTQSPDSLPVSLGERATINCKSSQSVLHSSNNKNYLAWYQQKPGQSPKLLISWASTRESGVPDRFSGSGSGTHFTLTISSLRAEDVAVYYCLQYFNNQYTFGQGTKLEIK
B3: COV30-14 (antibody, V domains shown)
VH: QVQLVQSGAEVKKPGASVKVSCQTSGYTFTSYYMHWVRQAPGQGLEWMGLITPSGDDTYYAQRFQGRVTMTRDTSTSPTYMELSSLTSEDTAVYYCAKMSRAGGFDVWGQGTLVTVSS
VL: EVVLTQSPGTLSLSPGERATLSCRASQSITGRYLAWYQQKPGQAPRLLMYGESSRVTGIPDRFSGGGSGTDFTLTISRLEPEDFAVYYCQHFASSPPTYTFGQGTKLEIR
B4: COV93-08 (antibody, V domains shown)
VH: QVQLRESGPGVVKPSGTLSLTCTVSGDFINNNRWWTWVRQSPGKGLEWIGEIYHSGSTNYNPSLKGRVTISVDKSKNHFSLKLTSVTAADTAMYYCARGGYCTVGDCHDNWFDPWGQGTLVTVSS
VL: DIQMTQSPSTLSASVGDRVTITCRASQNINSWLAWYQQKPGKAPKVLIYKASSLESGVPSRFSGSVSGTEFTLTISSLQPDDFATYYCQQYSTLSWTFGQGTKVDIK
B5: COV93-38 (antibody, V domains shown)
VH: QVQLQESGPGVVKPSGTLSLTCAVSGDFSNNNRWWTWVRQSPGKGLEWIGEIHQSGSTNYNPSLKSRITISVDKSKNQFSLKLTSVTAADTAVYYCARGGYCSVGDCHDNWFDPWGQGTLVTVSS
VL: DIQMTQSPSTLSASVGDRVTITCRASQTINSWLAWYQQKPGKAPKVLIYKASSLESGVPSRFSGSVSGTEFTLTISSLQPDDFATYYCQQYSSLSWTFGQGTKVDIK
B6: COV30-80 (antibody, V domains shown)
VH: QVQLVESGGGVVQPGRSLRLSCAASGFTFSSYAMHWVRQAPGKGLEWVAVISYDGNNAFYADSVKGRFTISRDNSKNTVYVQMDSLRAEETAVYYCARAGYNSNWDLGDALDIWGQGTMVTVSS
VL: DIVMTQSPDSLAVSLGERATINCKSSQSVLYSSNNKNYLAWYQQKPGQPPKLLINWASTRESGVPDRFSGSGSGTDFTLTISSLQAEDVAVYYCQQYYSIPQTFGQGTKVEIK
B7: COV89-22 (antibody, V domains shown)
VH: QEQLVQSGAEVKKPGASVKVSCKSSGFTFSYFYLHWVRQAPGQGLEWMGIINPRGDGTRYAQKFQGRVTMTRDASTGTLYMELRSLRSEDTAVYYCARGADHGAFDIWGQGTMVTVSS
VL: EIVLTQSPGTLSLSPGERATLSCRASQSVRRNYFAWYQQKRGQAPRLLIYDASTRATGIPDRFSGSGSGTDFTLTISRLEPEDFAVYYCQQYDSSPPMYIFGQGTKLEIK
B8: COV72-37 (antibody, V domains shown)
VH: QVQLVQSGAEVKKPAASVKVSCKASGDTFSSHYMHWVRQAPGQGPEWMGIINPSGSGTAYGQKFQGRLTMTRDTSTSTVYMELSSLTSDDTAVYYCGGGSGGLFAYWGQGTLVTVSS
VL: EIVLTQSPGTLSLSPGERATLSCRASQIVRSNYLAWYQQKPGQAPRLLIYGASSRATGTPDRFSGGGSGTDFTLTINRLEPEDFAVYYCLQYDSSPPTYIFGQGTKLEIK
B9: COV30-35 (antibody, V domains shown)
VH: QVQLQESGPGQVKPSGTLSLTCAVSGGSINSSNWWSWVRQPPGKGLEWIGEIFHSGNTNYKPSLESRVTISFDKSKKELSLRLTSVTAADTAVYYCATLFCSGGTCYLGDWGQGTLVTVSS
VL: EIVLTQSPGTLSVSPGQRATLSCRASESVSSRYVAWYQQKPGQAPRLIIYGASSRATGIPDRFSGSGSGTEFILSISRLEPEDSAVYYCQQYGSSPTFGGGTKVEIK
B10: COV77-05 (antibody, V domains shown)
VH: QMQLHESGPGLVKPSQTLSLTCAVSGGSISSDGYYWNWVRQHPGKGLELIAYIYYNGRPYYNPSLRSRVNISLDTSMNQFSLRMKSLTAADTAVYYCARGRLGYCAGGSCFLESFDYWGQGALVTVSS
VL: EIVMTQSPATLSVSPGETATLSCRASESISSNLAWYQQKPGQAPRLLIYGASTRATGIPARFSGSGSGTEFALTISSLQAEDFAVYSCQQYHNWLLTFGGGTKVEIK

Experiments:
Test in all cases: bead flow cytometry, AUC minus CD4
[1] = biological target: T1, HCoV-NL63 spike protein (Sino Biological 40604-V08B) (HCoV-NL63, UniProt Q6Q1S2 19-1296)
T1 sequence: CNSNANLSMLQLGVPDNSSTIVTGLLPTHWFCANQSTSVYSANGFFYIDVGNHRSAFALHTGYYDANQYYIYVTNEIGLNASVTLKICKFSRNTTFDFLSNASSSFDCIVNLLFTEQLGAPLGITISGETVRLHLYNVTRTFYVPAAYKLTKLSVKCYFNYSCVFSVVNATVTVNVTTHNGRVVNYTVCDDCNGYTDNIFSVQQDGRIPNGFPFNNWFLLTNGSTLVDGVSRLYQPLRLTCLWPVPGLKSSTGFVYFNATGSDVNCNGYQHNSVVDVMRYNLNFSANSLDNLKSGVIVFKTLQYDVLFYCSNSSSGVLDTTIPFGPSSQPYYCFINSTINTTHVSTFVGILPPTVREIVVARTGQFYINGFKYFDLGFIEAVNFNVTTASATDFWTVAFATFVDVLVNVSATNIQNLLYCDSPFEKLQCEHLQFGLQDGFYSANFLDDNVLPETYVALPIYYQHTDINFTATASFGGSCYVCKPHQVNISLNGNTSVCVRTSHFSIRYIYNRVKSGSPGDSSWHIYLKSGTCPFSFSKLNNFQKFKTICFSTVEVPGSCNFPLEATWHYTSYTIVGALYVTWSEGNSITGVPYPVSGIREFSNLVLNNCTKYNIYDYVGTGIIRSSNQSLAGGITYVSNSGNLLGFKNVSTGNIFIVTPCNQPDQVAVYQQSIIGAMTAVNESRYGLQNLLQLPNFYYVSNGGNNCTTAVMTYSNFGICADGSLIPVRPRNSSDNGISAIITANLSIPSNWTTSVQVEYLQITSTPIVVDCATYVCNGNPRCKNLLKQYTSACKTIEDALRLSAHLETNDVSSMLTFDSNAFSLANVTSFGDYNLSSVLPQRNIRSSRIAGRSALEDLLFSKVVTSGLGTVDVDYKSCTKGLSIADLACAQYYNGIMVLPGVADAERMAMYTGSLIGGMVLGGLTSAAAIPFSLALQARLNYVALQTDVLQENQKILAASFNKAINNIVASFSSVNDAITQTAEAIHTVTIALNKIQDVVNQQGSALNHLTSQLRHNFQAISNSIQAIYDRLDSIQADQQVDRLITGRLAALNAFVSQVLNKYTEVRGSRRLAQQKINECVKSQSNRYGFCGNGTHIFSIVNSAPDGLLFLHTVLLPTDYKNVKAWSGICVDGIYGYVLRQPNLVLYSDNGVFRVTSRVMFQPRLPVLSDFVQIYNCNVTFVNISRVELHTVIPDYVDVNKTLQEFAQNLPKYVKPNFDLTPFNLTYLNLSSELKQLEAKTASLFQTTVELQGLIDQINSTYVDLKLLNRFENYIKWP

[2] = biological target: SARS-CoV-2 spike N-terminal domain (NTD), recombinant (SARS-CoV-2, UniProt P0DTC2 14-305)
[3] = biological target: SARS-CoV-2 spike receptor binding domain (RBD), recombinant (SARS-CoV-2, UniProt P0DTC2 319-541)
[4] = biological target: T2, HCoV-229E spike protein (Sino Biological 40605-V08B) (HCoV-229E, UniProt P15423 16-1115)
T2 sequence: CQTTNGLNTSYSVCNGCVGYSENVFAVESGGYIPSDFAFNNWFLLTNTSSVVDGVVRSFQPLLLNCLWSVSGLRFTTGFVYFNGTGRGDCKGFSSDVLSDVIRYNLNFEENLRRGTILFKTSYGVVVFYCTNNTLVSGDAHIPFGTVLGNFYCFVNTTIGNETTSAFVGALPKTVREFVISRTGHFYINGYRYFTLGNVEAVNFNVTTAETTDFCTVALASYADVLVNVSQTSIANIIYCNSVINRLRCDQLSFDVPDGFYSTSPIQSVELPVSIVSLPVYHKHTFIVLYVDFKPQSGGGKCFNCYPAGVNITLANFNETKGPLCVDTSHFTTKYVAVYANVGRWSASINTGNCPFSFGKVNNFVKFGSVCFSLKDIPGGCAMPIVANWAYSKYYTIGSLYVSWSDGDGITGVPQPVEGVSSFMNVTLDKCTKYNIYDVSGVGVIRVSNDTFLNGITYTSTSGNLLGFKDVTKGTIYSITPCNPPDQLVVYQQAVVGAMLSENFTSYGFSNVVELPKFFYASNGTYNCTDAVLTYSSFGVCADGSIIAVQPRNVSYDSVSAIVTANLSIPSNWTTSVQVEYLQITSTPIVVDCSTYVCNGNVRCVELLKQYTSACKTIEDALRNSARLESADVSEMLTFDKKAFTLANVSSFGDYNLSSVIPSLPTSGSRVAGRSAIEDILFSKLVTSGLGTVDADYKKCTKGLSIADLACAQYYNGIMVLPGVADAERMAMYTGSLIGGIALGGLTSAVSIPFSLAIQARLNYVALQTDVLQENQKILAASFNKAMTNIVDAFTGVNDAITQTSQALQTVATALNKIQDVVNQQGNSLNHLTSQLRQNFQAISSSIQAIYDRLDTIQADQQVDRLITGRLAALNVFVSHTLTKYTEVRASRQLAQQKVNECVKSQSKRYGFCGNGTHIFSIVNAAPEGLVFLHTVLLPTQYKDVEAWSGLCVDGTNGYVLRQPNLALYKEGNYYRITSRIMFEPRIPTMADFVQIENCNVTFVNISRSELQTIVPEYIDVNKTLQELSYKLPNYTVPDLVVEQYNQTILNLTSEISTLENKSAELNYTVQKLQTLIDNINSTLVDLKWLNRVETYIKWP

Binder	binding result [1]	binding result [2]	binding result [3]	binding result [4]
B1	no binding (tested: 200 µg/mL)	no binding (tested: 200 µg/mL)	no binding (tested: 200 µg/mL)	–
B2	–	no binding (tested: 200 µg/mL)	no binding (tested: 200 µg/mL)	–
B3	no binding (tested: 200 µg/mL)	no binding (tested: 200 µg/mL)	–	no binding (tested: 200 µg/mL)
B4	no binding (tested: 200 µg/mL)	no binding (tested: 200 µg/mL)	no binding (tested: 200 µg/mL)	no binding (tested: 200 µg/mL)
B5	no binding (tested: 200 µg/mL)	no binding (tested: 200 µg/mL)	no binding (tested: 200 µg/mL)	no binding (tested: 200 µg/mL)
B6	–	no binding (tested: 200 µg/mL)	no binding (tested: 200 µg/mL)	–
B7	no binding (tested: 200 µg/mL)	no binding (tested: 200 µg/mL)	–	–
B8	no binding (tested: 200 µg/mL)	no binding (tested: 200 µg/mL)	–	no binding (tested: 200 µg/mL)
B9	no binding (tested: 200 µg/mL)	no binding (tested: 200 µg/mL)	no binding (tested: 200 µg/mL)	–
B10	no binding (tested: 200 µg/mL)	no binding (tested: 200 µg/mL)	no binding (tested: 200 µg/mL)	–
